Test [1] deals with MCF10A breast cancer cells. Kind of test: Viability of tumor cells cultured with platelets and Denosumab, ATP content (CellTiter-Glo). The class given is cell-based, human. The note with it: platelets plus Denosumab, 96 h; paclitaxel for the last 24 h. Here is the method: (§1) A2780 ovarian cancer cells (left) and MCF10A breast cancer cells (right) were employed as model to study the influence of RANKL and its neutralization on chemotherapy resistance. To this end, 30,000 tumor cells were cultured in the presence or absence of platelets and Denosumab for 96 h. The indicated concentrations of doxorubicin (left) or paclitaxel (right) were added for the last 24 h. Then cell viability was determined by analysis of ATP content of each sample (CellTiter-Glo assay, Promega). Values obtained with untreated tumor cells were set to 1.
(§2) To assess the role of pRANKL in the context of systemic treatment, the viability of ovarian and breast cancer cells was analyzed. Cells were incubated with human platelets in the presence or absence of Denosumab to neutralize pRANKL which mimics the situation in cancer patients. Presence of platelets enhanced the viability/cellular activity of tumor cells already without chemotherapeutic treatment, and the same was observed upon chemotherapeutic treatment.

Test [2] has as its system A2780 ovarian cancer cells. The description is as above. It counts as cell-based, human. The note with it: platelets plus Denosumab, 96 h; doxorubicin for the last 24 h. As to the method:
as §1, §2

Test [3] concerns MCF10A breast cancer cells. Put plainly: MCF10A breast cancer cells with sRANKL, Denosumab and paclitaxel, flow cytometry with 7AAD. It counts as cell-based, human. The note with it: 48 h, paclitaxel 10 nM added after 24 h. As to the method: FIG. 2: Blockade of RANKL by Denosumab overcomes resistance to chemotherapeutic treatment. MCF10A breast tumor cells were cultured for 48 h in the presence or absence of sRANKL (100 ng/ml) and/or Denosumab (20 μg/ml) as indicated. After the first 24 h of culture, paclitaxel (10 nM) was added where indicated. Then the percentage of living and dead cells was determined using flow cytometry with 7AAD.
To this end, it was evaluated if RANKL-induced chemoresistance could be overcome by application of a RANKL-inhibitor in the form of the approved RANKL antibody Denosumab. Therefore, MCF10A breast cancer cells were cultured for 48 h in the presence or absence of sRANKL (100 ng/ml, Immunotools) and Denosumab (20 μg/ml, Amgen) as indicated. After 24 h of culture, paclitaxel (10 nM, Taxomedac) representing a first line breast cancer therapeutic agent, was added where indicated.
On the technique in general: A flow cytometer gives signals particle by particle.

Test [4] concerns RANK expressing PBMC of a patient suffering from AML (94% blasts). Kind of test: Chemotherapy resistance model, PBMC of an AML patient, flow cytometry (7AAD and Annexin-V-PE). It counts as cell-based, human. Here is the method:
FIG. 1: RANKL mediates resistance of malignant cells to chemotherapeutic treatment. Blood of a patient suffering from acute myeloid leukemia (AML) containing 94% blasts (leukemic cells) was obtained at time of diagnosis prior to treatment and peripheral blood mononuclear cells (PBMC) were isolated by density gradient centrifugation. PBMC were cultured in the presence or absence of doxorubicin (dox, 1 μM) and/or soluble RANKL (sRANKL, 500 ng/ml) as indicated.
RANK expressing PBMC of a patient suffering from AML (French-American-British (FAB) classification: M4; 94% peripheral blood blasts) were subjected to a model of chemotherapyresistance (FIG. 1). To this end, patient blood was obtained at time of diagnosis prior to treatment and PBMC were isolated by density gradient centrifugation. […] Since AML cells of the FAB type M4 resemble monocyte-like cells, this experiment is in line with studies in healthy monocytes showing that sRANKL (Seshasayee et al. 2004, Jour Biol Chem, 279(29):30202-9) acts as a pro-survival factor, likely due to upregulation of anti-apoptotic BCL-2 proteins.

In test [5] the test system is SKBR3 breast cancer cell line. To be noted: Schramek et al., Nature 2010; cited from earlier work.
The subject of test [6] is melanoma metastasis. The note with it: Jones et al., Nature 2006, cited from earlier work.

For “Denosumab: fully human IgG2 monoclonal antibody specific to RANKL (Amgen); heavy chain SEQ ID 1, light chain SEQ ID 2”, the “protective effect of platelets on tumor cell viability” value in test [1] and in test [2] was “substantially reduced” in each case. In addition, the “effects of chemotherapeutic treatment upon RANKL neutralization (chemosensitivity)” value in test [3] (Denosumab 20 μg/ml with sRANKL 100 ng/ml) is “restores and even increases the effects of chemotherapeutic treatment”.
Take `COc1cccc2c1C(=O)c1c(O)c3c(c(O)c1C2=O)C[C@@](O)(C(=O)CO)C[C@@H]3O[C@H]1C[C@H](N)[C@H](O)[C@H](C)O1` [doxorubicin, reference compound]: the “percentage of early apoptotic and dead cells compared to the control group” value in test [4] (doxorubicin 1 μM, 48 h of treatment) is “greatly enhanced”. For the same molecule, the “amount of viable AML cells” value in test [4] (ex vivo cancer cell assay, doxorubicin applied) is “reduced”.

B1: sRANKL: recombinant human soluble RANKL, Immunotools, Germany (protein)
chain: EKAMVDGSWLDLAKRSKLEAQPFAHLTINATDIPSGSHKVSLSSWYHDRGWAKISNMTFSNGKLIVNQDGFYYLYANICFRHHETSGDLATEYLQLMVYVTKTSIKIPSSHTLMKGGSTKYWSGNSEFHFYSINVGGFFKLRSGEEISIEVSNPSLLDPDQDATYFGAFKVRDID
As to B1, the “effect of doxorubicin on the amount of viable AML cells in the presence of sRANKL” value in test [4] (ex vivo cancer cell assay, doxorubicin plus sRANKL) is on record as “neutralized”. The “effect of chemotherapeutic treatment when sRANKL was added” value in test [4] (sRANKL 500 ng/ml added to doxorubicin 1 μM, 48 h) was “markedly reduced”. Also, in test [5], the “protection from apoptosis induced by doxorubicin” value is reported as “protects the SKBR3 breast cancer cell line from apoptosis induced by doxorubicin”. The “protection of malignant cells from the effects of chemotherapeutic treatment” value in test [3] (sRANKL 100 ng/ml) is “protects the malignant cells from the effects of chemotherapeutic treatment”.

B2: osteoprotegerin: used for in vivo neutralization of RANKL in a mouse model of melanoma metastasis (protein, UniProt O00300 22-401, looked up)
Tumor necrosis factor …: ETFPPKYLHYDEETSHQLLCDKCPPGTYLKQHCTAKWKTVCAPCPDHYYTDSWHTSDECLYCSPVCKELQYVKQECNRTHNRVCECKEGRYLEIEFCLKHRSCPPGFGVVQAGTPERNTVCKRCPDGFFSNETSSKAPCRKHTNCSVFGLLLTQKGNATHDNICSGNSESTQKCGIDVTLCEEAFFRFAVPTKFTPNWLSVLVDNLPGTKVNAESVERIKRQHSSQEQTFQLLKLWKHQNKDQDIVKKIIQDIDLCENSVQRHIGHANLTFEQLRSLMESLPGKKVGAEDIEKTIKACKPSDQILKLLSLWRIKNGDQDTLKGLMHALKHSKTYHFPKTVTQSLKKTIRFLHSFTMYKLYQKLFLEMIGNQVQSVKISCL
For B2, in test [6], the protection from paralysis entry is reported as “complete protection from paralysis”. Also, the “tumor burden in bones” value in test [6] (in bones, but not in other organs) is on record as “marked reduction in tumor burden in bones”.

Source of the values: patent publication US20190218302A1, “ANTI-CANCER COMBINATION TREATMENT” (PROBIOCON GMBH, priority 2016, published 2019).
